Experimental data from publication PMC12786146.

Target: MARY-MVP (protamine-tagged human major vault protein)
Test: dynamic light scattering; DLS radii at varying MARY-MVP (0 to 7.3 nM) with INT-CFP fixed at 8.3 nM, pH 6.5 phosphate buffer, 50 mM NaCl, 1.5 mM MgCl2, after concentration

concentration of the transition from monomer to VLP: 5 nM
Substance: MARY-MVP (protamine-tagged human major vault protein)
